From patent US6410317, “Recombinase-based methods for producing expression vectors and compositions for use in practicing the same” (Clontech Laboratories, Inc.) come the findings set out here.

Series [1] addresses T1, Cre recombinase (UniProt P06956 P06956:1-343). The series is described as follows: acceptor loxP site; same buffer, 37 C 15 min; loxP of this acceptor PCR-transferred to 10 acceptors, 27 of 30 clones correct with pDNR-luc. The settings on record: chain copies: 4 per synapse (inferred); SfiI and BglII overhangs before cloning; assayed within plasmid.
For series [2], the target named is T1, Cre recombinase. Put plainly: same reaction, second donor loxP site. The settings on record: chain copies: 4 per synapse (inferred); EcoRI and SapI overhangs before cloning; assayed within plasmid. As to the method: (§1) To achieve generation of the expression vector from the donor and acceptor, the following were mixed together on ice in a standard eppendorf microcentrifuge tube: 0.5 µg pCMVmycloxP (representing the Acceptor vector); 0.5 µg pD3 (representing the Donor vector); 2 µl 10×Cre reaction buffer (10×Cre reaction buffer contains: 500 mM Tris-HCl (pH 7.5) and 300 mM NaCl); 10 mM MgCl_2, 1 µl 20×BSA (20×BSA contains 2 mg/ml BSA (NEB)); 25 Units Cre recombinase (Novagen); H_2O to 20 µl total.
(§2) Once the reagents were mixed, the reaction was incubated for 15 mins at 37° C. Following the reaction, the mixture was heated to 65° C. for 10 mins to inactivate the Cre enzyme. Finally, an aliquot of the reaction mix was transformed to E. coli using standard methods (e.g., electroporation), and the transformed bacteria selected on LB plates containing 60 µg/ml Chloramphenicol.

Series [3] concerns the target T1, Cre recombinase. Put plainly: in vitro recombination pD3 x pCMVmycloxP, 50 mM Tris-HCl pH 7.5, 30 mM NaCl, 10 mM MgCl2, BSA, 37 C 15 min; chloramphenicol selection in E. coli. The settings on record: chain copies: 4 per synapse (inferred); AatII and EcoRI overhangs before cloning; assayed within plasmid. As for the experimental part:
as §1, §2

T1 sequence (P06956 whole entry, one chain of several): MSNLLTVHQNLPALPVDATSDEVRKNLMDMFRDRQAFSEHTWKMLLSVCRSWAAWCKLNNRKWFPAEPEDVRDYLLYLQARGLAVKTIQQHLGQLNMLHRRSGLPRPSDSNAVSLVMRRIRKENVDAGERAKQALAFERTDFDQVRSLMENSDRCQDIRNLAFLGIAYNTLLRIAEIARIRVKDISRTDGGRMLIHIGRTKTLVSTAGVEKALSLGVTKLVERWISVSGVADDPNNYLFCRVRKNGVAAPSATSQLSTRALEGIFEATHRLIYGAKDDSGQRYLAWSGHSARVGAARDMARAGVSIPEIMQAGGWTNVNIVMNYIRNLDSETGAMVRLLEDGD

B1: loxP site of acceptor pCMVmycloxP (LoxPMyc-up/down) (dsDNA)
DNA 1: AGATAACTTCGTATAGCATACATTATACGAAGTTATA
DNA 2: GATCTATAACTTCGTATAATGTATGCTATACGAAGTTATCTCCA
In the case of B1, the binding result in the series with Cre recombinase [1] is “binds”.

B2: loxP site 2 of donor pD3 (LoxP2-up/down) (dsDNA)
DNA 1: AATTCGGATCCATAACTTCGTATAGCATACATTATACGAAGTTATGCGGCC
DNA 2: AGCGGCCGCATAACTTCGTATAATGTATGCTATACGAAGTTATGGATCCG
Consider B2, for which the binding result with Cre recombinase [2] is recorded as “binds”.

B3: loxP site 1 of donor pD3 (LoxP1-up/down) (dsDNA)
DNA 1: CGCGGCCGCATAACTTCGTATAGCATACATTATACGAAGTTATCAGTCGACG
DNA 2: AATTCGTCGACTGATAACTTCGTATAATGTATGCTATACGAAGTTATGCGGCCGCGACGT
Consider B3, for which the binding result with Cre recombinase [3] is on record as “binds”.
